Measurements as given in patent US20110091994A1, “Methods for Screening Compounds for Treating and/or Preventing an Hepatitis C Virus Infection” (priority 2008, published 2011).
Like-named read-outs stand apart in the source and are kept apart here.

B1: TMF1 (protein, UniProt P82094 1-1093, looked up)
TATA element modulatory factor: MSWFNASQLSSFAKQALSQAQKSIDRVLDIQEEEPSIWAETIPYGEPGISSPVSGGWDTSTWGLKSNTEPQSPPIASPKAITKPVRRTVVDESENFFSAFLSPTDVQTIQKSPVVSKPPAKSQRPEEEVKSSLHESLHIGQSRTPETTESQVKDSSLCVSGETLAAGTSSPKTEGKHEETVNKESDMKVPTVSLKVSESVIDVKTTMESISNTSTQSLTAETKDIALEPKEQKHEDRQSNTPSPPVSTFSSGTSTTSDIEVLDHESVISESSASSRQETTDSKSSLHLMQTSFQLLSASACPEYNRLDDFQKLTESCCSSDAFERIDSFSVQSLDSRSVSEINSDDELSGKGYALVPIIVNSSTPKSKTVESAEGKSEEVNETLVIPTEEAEMEESGRSATPVNCEQPDILVSSTPINEGQTVLDKVAEQCEPAESQPEALSEKEDVCKTVEFLNEKLEKREAQLLSLSKEKALLEEAFDNLKDEMFRVKEESSSISSLKDEFTQRIAEAEKKVQLACKERDAAKKEIKNIKEELATRLNSSETADLLKEKDEQIRGLMEEGEKLSKQQLHNSNIIKKLRAKDKENENMVAKLNKKVKELEEELQHLKQVLDGKEEVEKQHRENIKKLNSMVERQEKDLGRLQVDMDELEEKNRSIQAALDSAYKELTDLHKANAAKDSEAQEAALSREMKAKEELSAALEKAQEEARQQQETLAIQVGDLRLALQRTEQAAARKEDYLRHEIGELQQRLQEAENRNQELSQSVSSTTRPLLRQIENLQATLGSQTSSWEKLEKNLSDRLGESQTLLAAAVERERAATEELLANKIQMSSMESQNSLLRQENSRFQAQLESEKNRLCKLEDENNRYQVELENLKDEYVRTLEETRKEKTLLNSQLEMERMKVEQERKKAIFTQETIKEKERKPFSVSSTPTMSRSSSISGVDMAGLQTSFLSQDESHDHSFGPMPISANGSNLYDAVRMGAGSSIIENLQSQLKLREGEITHLQLEIGNLEKTRSIMAEELVKLTNQNDELEEKVKEIPKLRTQLRDLDQRYNTILQMYGEKAEEAEELRLDLEDVKNMYKTQIDELLRQSLS
B2: SORBS2 (protein, UniProt O94875 1-1100, looked up)
Sorbin and SH3 …: MSYYQRPFSPSAYSLPASLNSSIVMQHGTSLDSTDTYPQHAQSLDGTTSSSIPLYRSSEEEKRVTVIKAPHYPGIGPVDESGIPTAIRTTVDRPKDWYKTMFKQIHMVHKPDDDTDMYNTPYTYNAGLYNPPYSAQSHPAAKTQTYRPLSKSHSDNSPNAFKDASSPVPPPHVPPPVPPLRPRDRSSTEKHDWDPPDRKVDTRKFRSEPRSIFEYEPGKSSILQHERPASLYQSSIDRSLERPMSSASMASDFRKRRKSEPAVGPPRGLGDQSASRTSPGRVDLPGSSTTLTKSFTSSSPSSPSRAKGGDDSKICPSLCSYSGLNGNPSSELDYCSTYRQHLDVPRDSPRAISFKNGWQMARQNAEIWSSTEETVSPKIKSRSCDDLLNDDCDSFPDPKVKSESMGSLLCEEDSKESCPMAWGSPYVPEVRSNGRSRIRHRSARNAPGFLKMYKKMHRINRKDLMNSEVICSVKSRILQYESEQQHKDLLRAWSQCSTEEVPRDMVPTRISEFEKLIQKSKSMPNLGDDMLSPVTLEPPQNGLCPKRRFSIEYLLEEENQSGPPARGRRGCQSNALVPIHIEVTSDEQPRAHVEFSDSDQDGVVSDHSDYIHLEGSSFCSESDFDHFSFTSSESFYGSSHHHHHHHHHHHRHLISSCKGRCPASYTRFTTMLKHERARHENTEEPRRQEMDPGLSKLAFLVSPVPFRRKKNSAPKKQTEKAKCKASVFEALDSALKDICDQIKAEKKRGSLPDNSILHRLISELLPDVPERNSSLRALRRSPLHQPLHPLPPDGAIHCPPYQNDCGRMPRSASFQDVDTANSSCHHQDRGGALQDRESPRSYSSTLTDMGRSAPRERRGTPEKEKLPAKAVYDFKAQTSKELSFKKGDTVYILRKIDQNWYEGEHHGRVGIFPISYVEKLTPPEKAQPARPPPPAQPGEIGEAIAKYNFNADTNVELSLRKGDRVILLKRVDQNWYEGKIPGTNRQGIFPVSYVEVVKKNTKGAEDYPDPPIPHSYSSDRIHSLSSNKPQRPVFTHENIQGGGEPFQALYNYTPRNEDELELRESDVIDVMEKCDDGWFVGTSRRTKFFGTFPGNYVKRL
B3: ITGAL (protein, UniProt P20701 26-1170, looked up)
Integrin alpha-L: YNLDVRGARSFSPPRAGRHFGYRVLQVGNGVIVGAPGEGNSTGSLYQCQSGTGHCLPVTLRGSNYTSKYLGMTLATDPTDGSILACDPGLSRTCDQNTYLSGLCYLFRQNLQGPMLQGRPGFQECIKGNVDLVFLFDGSMSLQPDEFQKILDFMKDVMKKLSNTSYQFAAVQFSTSYKTEFDFSDYVKRKDPDALLKHVKHMLLLTNTFGAINYVATEVFREELGARPDATKVLIIITDGEATDSGNIDAAKDIIRYIIGIGKHFQTKESQETLHKFASKPASEFVKILDTFEKLKDLFTELQKKIYVIEGTSKQDLTSFNMELSSSGISADLSRGHAVVGAVGAKDWAGGFLDLKADLQDDTFIGNEPLTPEVRAGYLGYTVTWLPSRQKTSLLASGAPRYQHMGRVLLFQEPQGGGHWSQVQTIHGTQIGSYFGGELCGVDVDQDGETELLLIGAPLFYGEQRGGRVFIYQRRQLGFEEVSELQGDPGYPLGRFGEAITALTDINGDGLVDVAVGAPLEEQGAVYIFNGRHGGLSPQPSQRIEGTQVLSGIQWFGRSIHGVKDLEGDGLADVAVGAESQMIVLSSRPVVDMVTLMSFSPAEIPVHEVECSYSTSNKMKEGVNITICFQIKSLIPQFQGRLVANLTYTLQLDGHRTRRRGLFPGGRHELRRNIAVTTSMSCTDFSFHFPVCVQDLISPINVSLNFSLWEEEGTPRDQRAQGKDIPPILRPSLHSETWEIPFEKNCGEDKKCEANLRVSFSPARSRALRLTAFASLSVELSLSNLEEDAYWVQLDLHFPPGLSFRKVEMLKPHSQIPVSCEELPEESRLLSRALSCNVSSPIFKAGHSVALQMMFNTLVNSSWGDSVELHANVTCNNEDSDLLEDNSATTIIPILYPINILIQDQEDSTLYVSFTPKGPKIHQVKHMYQVRIQPSIHDHNIPTLEAVVGVPQPPSEGPITHQWSVQMEPPVPCHYEDLERLPDAAEPCLPGALFRCPVVFRQEILVQVIGTLELVGEIEASSMFSLCSSLSISFNSSKHFHLYGSNASLAQVVMKVDVVYEKQMLYLYVLSGIGGLLLLLLIFIVLYKVGFFKRNLKEKMEAGRGVPNGIPAEDSEQLASGQEAGDPGCLKPLHEKDSESGGGKD
B4: EFEMP1 (protein, UniProt Q12805 18-493, looked up)
EGF-containing fibulin-like …: QDTEETITYTQCTDGYEWDPVRQQCKDIDECDIVPDACKGGMKCVNHYGGYLCLPKTAQIIVNNEQPQQETQPAEGTSGATTGVVAASSMATSGVLPGGGFVASAAAVAGPEMQTGRNNFVIRRNPADPQRIPSNPSHRIQCAAGYEQSEHNVCQDIDECTAGTHNCRADQVCINLRGSFACQCPPGYQKRGEQCVDIDECTIPPYCHQRCVNTPGSFYCQCSPGFQLAANNYTCVDINECDASNQCAQQCYNILGSFICQCNQGYELSSDRLNCEDIDECRTSSYLCQYQCVNEPGKFSCMCPQGYQVVRSRTCQDINECETTNECREDEMCWNYHGGFRCYPRNPCQDPYILTPENRCVCPVSNAMCRELPQSIVYKYMSIRSDRSVPSDIFQIQATTIYANTINTFRIKSGNENGEFYLRQTSPVSAMLVLVKSLSGPREHIVDLEMLTVSSIGTFRTSSVLRLTIIVGPFSF
B5: MOBK1B (protein, UniProt Q7L9L4 2-216, looked up)
MOB kinase activator 1B: SFLFGSRSSKTFKPKKNIPEGSHQYELLKHAEATLGSGNLRMAVMLPEGEDLNEWVAVNTVDFFNQINMLYGTITDFCTEESCPVMSAGPKYEYHWADGTNIKKPIKCSAPKYIDYLMTWVQDQLDDETLFPSKIGVPFPKNFMSVAKTILKRLFRVYAHIYHQHFDPVIQLQEEAHLNTSFKHFIFFVQEFNLIDRRELAPLQELIEKLTSKDR

Key:
[1] = tested on: HCV ORFs (Gal4-DB fusions); assay type: binding, HCV genotype 1b, isolate con1; settings: human protein listed by gene symbol; the value names the HCV protein it interacts with
[2] = molecular target: T1, HCV ORFs (Gal4-DB fusions) (Hepatitis C virus genotype 1b, UniProt Q9WMX2); assay type: binding, HCV genotype 1b, isolate con1; settings: human protein as prey
T1 construct: expressed in transfected cells; host or cells: Saccharomyces cerevisiae MAV203 (IMAP1) / AH109 (IMAP2)

[3] = molecular target: T2, GST-tagged viral proteins (Hepatitis C virus genotype 1b, UniProt Q9WMX2); assay: Validation by co-affinity purification (CoAP); assay type: binding, HCV genotype 1b, isolate con1; design: key: +: IMAP validation; −: not validated; NA: non assayable due to default of protein expression or to cellular protein directly interacting with GST; settings: interaction with HCV protein NS5A
T2 construct: expressed in transfected cells; host or cells: HEK-293T
Source text: C. Validation of Y2H interactions by co-affinity purification assay. Nine co-AP positive assays are shown, representing: NS5A-SORBS2 (1), NS3-CALCOCO2 (2), NS5A-BIN1 (3), NS5A-MOBK1B (4), NS5A-EFEMP1 (5), NS3-PSMB9 and NS5A-PSMB9 (6), NS5A-PPPIRI3L (7), NS3-RASAL2 (8). After pull-down with GST tagged viral baits (+) or with negative control GST alone (−), cellular preys are identified with anti-Flag antibody. Anti-GST antibody identifies either GST alone or GST-tagged viral baits. Expression of cellular preys in cell lysate is controlled by anti-Flag (bottom panel). […]
A random pool of 59 IMAP Y2H interactions was chosen for CoAP assays. Cellular ORFs (interacting domains found in Y2H screens) were cloned by recombinational cloning from a pool of human cDNA library or the MGC cDNA plasmids using KOD polymerase (Toyobo) into pDONR207 (Invitrogen). After validation by sequencing, these ORFs were transferred to pCi-neo-3xFLAG gateway-converted, and HCV ORFs were transferred into pDEST27 (GST fusion in N-term). HEK-293T cells were then co-transfected (JetPei, Polyplus) by each pair of plasmid encoding interacting proteins. Controls are GST alone against 3xFLAG-tagged preys. Two days after transfection, cells were harvested and lysed (0.5% NP-40, 20 mM Tris-HCl (pH 8.0), 180 mM NaCl, 1 mM EDTA, and complete protease inhibitor cocktail). Cell lysates were cleared by centrifugation for 20 min at 13,000 rpm at 4° C. and soluble protein complexes were purified using Glutathione Sepharose 4B beads (GE Healthcare). Beads were then washed extensively four times with lysis buffer and proteins were separated on SDS-PAGE and transferred to nitrocellulose membrane. GST-tagged viral proteins and 3xFLAG-tagged cellular proteins were detected using standard immunoblotting techniques using anti-GST (Covance) and anti-FLAG M2 (Sigma) monoclonal antibodies (21).

HCV proteins = molecular target: T3, HCV proteins (Hepatitis C virus genotype 1b, UniProt Q9WMX2); assay: Validation by Y2H pairwise matrices; assay type: binding; settings: validation of interaction with HCV protein NS3;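 further: yeast two-hybrid pairwise tests of interactions first found in Y2H screens of HCV bait proteins against human cDNA libraries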
T3 construct: expressed in transfected cells
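Wherever IMAP Y2H IMAP1 (number of IST) is given: yeast two-hybrid screens using HCV genotype 1b proteins fused to Gal4-DB as baits against prey cDNA libraries from human spleen and foetal brain, IMAP1 via transformation and IMAP2 via mating.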
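Wherever IMAP Y2H IMAP2 (number of IST) is given: yeast two-hybrid screens using HCV genotype 1b proteins fused to Gal4-DB as baits against prey cDNA libraries from human spleen and foetal brain, IMAP1 via transformation and IMAP2 via mating.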
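Wherever Interaction with viral protein is given: yeast two-hybrid screens using HCV genotype 1b proteins fused to Gal4-DB as baits against prey cDNA libraries from human spleen and foetal brain, IMAP1 via transformation and IMAP2 via mating.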

T2 sequence (Q9WMX2 1973-2419): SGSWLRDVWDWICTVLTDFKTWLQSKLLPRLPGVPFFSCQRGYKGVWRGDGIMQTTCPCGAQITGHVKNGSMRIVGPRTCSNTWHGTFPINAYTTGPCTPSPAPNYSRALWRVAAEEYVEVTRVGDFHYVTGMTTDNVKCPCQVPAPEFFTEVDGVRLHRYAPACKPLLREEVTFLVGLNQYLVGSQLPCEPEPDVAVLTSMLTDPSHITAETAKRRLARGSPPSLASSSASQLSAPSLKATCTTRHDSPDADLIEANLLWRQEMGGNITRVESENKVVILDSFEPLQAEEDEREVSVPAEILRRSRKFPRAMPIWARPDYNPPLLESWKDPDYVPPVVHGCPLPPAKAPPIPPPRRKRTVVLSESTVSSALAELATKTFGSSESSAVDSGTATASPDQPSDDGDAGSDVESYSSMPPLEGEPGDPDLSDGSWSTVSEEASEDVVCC
T3 sequence (Q9WMX2 1027-1657): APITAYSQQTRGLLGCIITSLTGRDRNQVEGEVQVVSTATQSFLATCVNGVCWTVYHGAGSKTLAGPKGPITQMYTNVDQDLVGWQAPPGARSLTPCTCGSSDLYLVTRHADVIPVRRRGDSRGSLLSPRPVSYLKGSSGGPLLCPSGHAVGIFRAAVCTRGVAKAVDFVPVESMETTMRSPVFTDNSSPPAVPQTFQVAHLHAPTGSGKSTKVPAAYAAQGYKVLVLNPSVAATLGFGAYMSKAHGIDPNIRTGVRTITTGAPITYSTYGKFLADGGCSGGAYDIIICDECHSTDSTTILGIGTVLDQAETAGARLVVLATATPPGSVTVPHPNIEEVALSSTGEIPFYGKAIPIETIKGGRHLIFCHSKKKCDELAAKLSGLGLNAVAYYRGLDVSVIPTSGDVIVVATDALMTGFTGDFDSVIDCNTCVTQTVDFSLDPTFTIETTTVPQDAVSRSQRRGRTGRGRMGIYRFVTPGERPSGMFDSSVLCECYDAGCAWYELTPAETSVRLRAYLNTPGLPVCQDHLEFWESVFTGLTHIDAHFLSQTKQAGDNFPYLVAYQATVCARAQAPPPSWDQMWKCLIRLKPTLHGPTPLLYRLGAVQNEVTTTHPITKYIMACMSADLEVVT

| Molecule | Interaction with viral protein [1] | IMAP Y2H IMAP2 (number of IST) ([2]; HCV protein NS5A as bait) | CoAP [3] | IMAP Y2H IMAP1 (number of IST) ([2]; HCV protein NS3 as bait) | Y2H matrices (HCV proteins) | IMAP Y2H IMAP2 (number of IST) ([2]; HCV protein NS5B as bait) |
| --- | --- | --- | --- | --- | --- | --- |
| B1 | NS5A | 2 | − |  |  |  |
| B2 | NS5A | 8 | + |  |  |  |
| B3 | NS5A | 1 | + |  |  |  |
| B4 | NS3 and NS5A | 2 | + | 10 | + |  |
| B5 | NS5A | 5 | + |  |  | 3 |
